Data: US6710030B1, “Contortrostain (CN) and methods for its use in preventing metastasis and other conditions” (University of Southern California, priority 1993, dated 2004)

Tested on: MDA-MB-435 cells
Test: Phosphotyrosine immunoblot, MDA-MB-435 cells
Type: cell-based, human
Procedure: Cell culture, preparation and stimulation—T24 cells were maintained in RPMI 1640 medium containing 5% fetal bovine serum, and MDA-MB-435 and 293 cells were maintained in Dulbecco's modified Eagle's medium with 10% serum at 37° C. in 5% CO2. Cells were washed with phosphate-buffered saline (PBS) and starved in the appropriate serum-free medium for 6 h at 37° C. Cells were detached by brief treatment with 0.05% trypsin/0.02% EDTA in PBS and collected by centrifugation, resuspended in soybean trypsin inhibitor (1 mg/ml in serum-free medium), and washed in 2% bovine serum albumin/serum-free medium. Cells were maintained in suspension for 1 h in 2% bovine serum albumin/serum-free medium at 37° C. with end-over-end agitation. Quiescent cells (3×10^6/ml) were treated with disintegrins or other reagents while in suspension, or were allowed to adhere to Matrigel (Becton Dickinson, Bedford, Mass.) diluted 1:100 with serum-free medium during treatment.
Lysate preparation and immunoprecipitation—Suspended and adherent cells were washed twice with cold PBS and lysed in cold lysis buffer (50 mM Tris, pH 8.0, 150 mM NaCl, 1% Nonidet P-40, 0.5% deoxycholate, 0.1% SDS, protease inhibitor cocktail, 1 mM sodium pyrophosphate, 1 mM sodium orthovanadate, 50 mM sodium fluoride). After 10-15 min incubation on ice, insoluble material was removed by centrifugation at 14,000 RPM in a microcentrifuge for 15 min. Supernatants were collected and total protein concentrations standardized by the BCA protein assay (Pierce, Rockford, Ill.). Immunoprecipitation was carried out by incubating whole cell lysates (200 μg total protein) with 1.25 μg anti-FAK or anti-CAS mAb 4-6 h at 4° C. followed by 20 μl protein G-agarose overnight at 4° C. Immunoprecipitates were washed 4 times in lysis buffer without inhibitors and dissociated by adding SDS-PAGE sample buffer and boiling 5 min. Whole cell lysates (30 μg total protein) or immunoprecipitates were resolved by 7.5% SDS-polyacrylamide gel electrophoresis and transferred to nitrocellulose membranes.
Immunoblotting—Membranes were blocked with 5% nonfat milk/Tris-buffered saline/0.1% Tween 20 (blocking buffer) 1 h at room temperature or overnight at 4° C. Primary antibody incubations were performed in blocking buffer for 1 h at room temperature. After washing in Tris-buffered saline/0.1% Tween 20, membranes were incubated with horseradish peroxidase-conjugated secondary antibody in blocking buffer 1 h at room temperature. Membranes were washed extensively. Inimunoblots were developed using Super Signar West Pico Chemiluminescent Substrate from Pierce. Densitometry was performed using UN-SCAN-IT™, software (Silk Scientific, Orem, Utah))

Molecule	stimulation of tyrosine phosphorylation (10 μg/ml, data not shown)	effect on contortrostatin (10 nM)-induced tyrosine phosphorylation (1 μM, added simultaneously, 10 min)	effect alone on tyrosine phosphorylation (concentrations up to 1 μM)
monomeric vitronectin: soluble monomeric vitronectin (protein, UniProt P04004 20-478, looked up) Vitronectin: DQESCKGRCTEGFNVDKKCQCDELCSYYQSCCTDYTAECKPQVTRGDVFTMPEDEYTVYDDGEEKNNATVHEQVGGPSLTSDLQAQSKGNPEQTPVLKPEEEAPAPEVGASKPEGIDSRPETLHPGRPQPPAEEELCSGKPFDAFTDLKNGSLFAFRGQYCYELDEKAVRPGYPKLIRDVWGIEGPIDAAFTRINCQGKTYLFKGSQYWRFEDGVLDPDYPRNISDGFDGIPDNVDAALALPAHSYSGRERVYFFKGKQYWEYQFQHQPSQEECEGSSLSAVFEHFAMMQRDSWEDIFELLFWGRTSAGTRQPQFISRDWHGVPGQVDAAMAGRIYISGMAPRPSLAKKQRFRHRNRKGYRSQRGHSRGRNQNSRRPSRATWLSLFSSEESNLGANNYDDYRMDWLVPATCEPIQSVFFFSGDKYYRVNLRTRRVDTVDPPYPRSIAQYWLGCPAPGHL	failed to stimulate tyrosine phosphorylation		
flavoridin: monomeric disintegrin obtained from Sigma (protein) GEECDCGSPSNPCCDAATCKLRPGAQCADGLCCDQCRFKKKRTICRIARGDFPDDRCTGLSNDCPRWNDL		completely abrogated	no effect on tyrosine phosphorylation
